Where a chain is given by its changes, count along the chain named. Names and notes keep the numbering of the source.
B1: target 1 MT 5'PFS ACG 3'PFS CGU (mixed)
RNA 1: CACCCGUGCAAAAAUGCAGGGGUCUAAAACUGAGCGGAUAACCUCUCUAUGG
RNA 2: GGGAAUGGAUCCACAUCUACGAAUUCACGCCAUAGAGAGGUUAUCCGCUCACGUAGAUCGGAAGAGCACACGU
B2: target 1 MT 5'PFS GCG 3'PFS UUG (mixed)
RNA 1: B1 RNA 1
RNA 2: B1 RNA 2 with A27G, C52U, G53U, U54G
B3: target 1 MT 5'PFS CUC 3'PFS CUG (mixed)
RNA 1: B1 RNA 1
RNA 2: B1 RNA 2 with A27C, C28U, G29C, G53U, U54G
B4: target 1 MT 5'PFS UCC 3'PFS UCA (mixed)
RNA 1: B1 RNA 1
RNA 2: B1 RNA 2 with A27U, G29C, C52U, G53C, U54A
B5: target 1 MT 5'PFS GCG 3'PFS UUC (mixed)
RNA 1: B1 RNA 1
RNA 2: B1 RNA 2 with A27G, C52U, G53U, U54C
B6: target 1 MT 5'PFS UUU 3'PFS ACU (mixed)
RNA 1: B1 RNA 1
RNA 2: B1 RNA 2 with A27U, C28U, G29U, C52A, G53C
B7: target 1 MT 5'PFS UCG 3'PFS UCA (mixed)
RNA 1: B1 RNA 1
RNA 2: B1 RNA 2 with A27U, C52U, G53C, U54A
B8: target 1 MT 5'PFS GGA 3'PFS UAG (mixed)
RNA 1: B1 RNA 1
RNA 2: B1 RNA 2 with A27G, C28G, G29A, C52U, G53A, U54G
B9: target 1 insG 3' of 9,insG 3' of 1 (mixed)
RNA 1: B1 RNA 1
RNA 2: GGGAAUGGAUCCACAUCUACGAAUUCGUACCAUAGAGAGGUUAGUCCGCUCAGCCGAGAUCGGAAGAGCACACGU
B10: target 1 MT 5'PFS GCG 3'PFS UUA (mixed)
RNA 1: B1 RNA 1
RNA 2: B1 RNA 2 with A27G, C52U, G53U, U54A
B11: target 1 C2G,C6G (mixed)
RNA 1: B1 RNA 1
RNA 2: B1 RNA 2 with A27G, C28U, G29A, C46G, C50G, G53C, U54G
B12: target 1 MT 5'PFS CUC 3'PFS CUA (mixed)
RNA 1: B1 RNA 1
RNA 2: B1 RNA 2 with A27C, C28U, G29C, G53U, U54A
B13: target 1 MT 5'PFS UGG 3'PFS UUG (mixed)
RNA 1: B1 RNA 1
RNA 2: B1 RNA 2 with A27U, C28G, C52U, G53U, U54G
B14: target 1 MT 5'PFS CCA 3'PFS UCC (mixed)
RNA 1: B1 RNA 1
RNA 2: B1 RNA 2 with A27C, G29A, C52U, G53C, U54C
B15: target 1 insA 3' of 13,insA 3' of 4 (mixed)
RNA 1: B1 RNA 1
RNA 2: B9 RNA 2 with G40A, U41G, A43U, G44A, U50A, C51U, A52C, G53A
B16: target 1 insU 3' of 18,insU 3' of 12 (mixed)
RNA 1: B1 RNA 1
RNA 2: GGGAAUGGAUCCACAUCUACGAAUUCGUACCAUAUGAGAGGUUUAUCCGCUCACCGAGAUCGGAAGAGCACACGU
B17: target 1 MT 5'PFS CCA 3'PFS UCU (mixed)
RNA 1: B1 RNA 1
RNA 2: B1 RNA 2 with A27C, G29A, C52U, G53C
B18: target 1 MT 5'PFS GCG 3'PFS UUU (mixed)
RNA 1: B1 RNA 1
RNA 2: B1 RNA 2 with A27G, C52U, G53U
B19: target 1 MT 5'PFS UAG 3'PFS CUG (mixed)
RNA 1: B1 RNA 1
RNA 2: B1 RNA 2 with A27U, C28A, G53U, U54G
B20: target 1 MT 5'PFS AAC 3'PFS AUG (mixed)
RNA 1: B1 RNA 1
RNA 2: B1 RNA 2 with C28A, G29C, C52A, G53U, U54G
B21: target 1 MT 5'PFS CCA 3'PFS UCA (mixed)
RNA 1: B1 RNA 1
RNA 2: B1 RNA 2 with A27C, G29A, C52U, G53C, U54A
B22: target 1 MT 5'PFS UUU 3'PFS ACC (mixed)
RNA 1: B1 RNA 1
RNA 2: B1 RNA 2 with A27U, C28U, G29U, C52A, G53C, U54C
B23: target 1 MT 5'PFS GGA 3'PFS UAC (mixed)
RNA 1: B1 RNA 1
RNA 2: B1 RNA 2 with A27G, C28G, G29A, C52U, G53A, U54C
B24: target 1 MT 5'PFS UGG 3'PFS UUU (mixed)
RNA 1: B1 RNA 1
RNA 2: B1 RNA 2 with A27U, C28G, C52U, G53U
B25: target 1 MT 5'PFS GUG 3'PFS CAU (mixed)
RNA 1: B1 RNA 1
RNA 2: B1 RNA 2 with A27G, C28U, G53A
B26: target 1 MT 5'PFS GAG 3'PFS AAG (mixed)
RNA 1: B1 RNA 1
RNA 2: B1 RNA 2 with A27G, C28A, C52A, G53A, U54G
B27: target 1 MT 5'PFS UCG 3'PFS UCC (mixed)
RNA 1: B1 RNA 1
RNA 2: B1 RNA 2 with A27U, C52U, G53C, U54C
B28: target 1 MT 5'PFS ACG 3'PFS CGG (mixed)
RNA 1: B1 RNA 1
RNA 2: B1 RNA 2 with U54G
B29: target 1 MT 5'PFS UCC 3'PFS UCG (mixed)
RNA 1: B1 RNA 1
RNA 2: B1 RNA 2 with A27U, G29C, C52U, G53C, U54G
B30: target 1 MT 5'PFS GUG 3'PFS GUU (mixed)
RNA 1: B1 RNA 1
RNA 2: B1 RNA 2 with A27G, C28U, C52G, G53U
B31: target 1 MT 5'PFS AAC 3'PFS AUA (mixed)
RNA 1: B1 RNA 1
RNA 2: B1 RNA 2 with C28A, G29C, C52A, G53U, U54A
B32: target 1 MT 5'PFS GGA 3'PFS UAU (mixed)
RNA 1: B1 RNA 1
RNA 2: B1 RNA 2 with A27G, C28G, G29A, C52U, G53A
B33: target 1 MT 5'PFS UAG 3'PFS CUA (mixed)
RNA 1: B1 RNA 1
RNA 2: B1 RNA 2 with A27U, C28A, G53U, U54A
B34: target 1 MT 5'PFS GAG 3'PFS AAU (mixed)
RNA 1: B1 RNA 1
RNA 2: B1 RNA 2 with A27G, C28A, C52A, G53A
B35: target 1 MT 5'PFS UCC 3'PFS UCU (mixed)
RNA 1: B1 RNA 1
RNA 2: B1 RNA 2 with A27U, G29C, C52U, G53C
B36: target 1 MT 5'PFS GGA 3'PFS UAA (mixed)
RNA 1: B1 RNA 1
RNA 2: B1 RNA 2 with A27G, C28G, G29A, C52U, G53A, U54A
B37: target 1 MT 5'PFS AAC 3'PFS AUC (mixed)
RNA 1: B1 RNA 1
RNA 2: B1 RNA 2 with C28A, G29C, C52A, G53U, U54C
B38: target 1 MT 5'PFS UCC 3'PFS UCC (mixed)
RNA 1: B1 RNA 1
RNA 2: B1 RNA 2 with A27U, G29C, C52U, G53C, U54C
B39: target 1 MT 5'PFS UAG 3'PFS CUC (mixed)
RNA 1: B1 RNA 1
RNA 2: B1 RNA 2 with A27U, C28A, G53U, U54C

Target: T1, EsCas13d, nuclease-dead (Eubacterium siraeum, UniProt B0MS50, R295A;H300A;R849A;H854A)
T1 sequence: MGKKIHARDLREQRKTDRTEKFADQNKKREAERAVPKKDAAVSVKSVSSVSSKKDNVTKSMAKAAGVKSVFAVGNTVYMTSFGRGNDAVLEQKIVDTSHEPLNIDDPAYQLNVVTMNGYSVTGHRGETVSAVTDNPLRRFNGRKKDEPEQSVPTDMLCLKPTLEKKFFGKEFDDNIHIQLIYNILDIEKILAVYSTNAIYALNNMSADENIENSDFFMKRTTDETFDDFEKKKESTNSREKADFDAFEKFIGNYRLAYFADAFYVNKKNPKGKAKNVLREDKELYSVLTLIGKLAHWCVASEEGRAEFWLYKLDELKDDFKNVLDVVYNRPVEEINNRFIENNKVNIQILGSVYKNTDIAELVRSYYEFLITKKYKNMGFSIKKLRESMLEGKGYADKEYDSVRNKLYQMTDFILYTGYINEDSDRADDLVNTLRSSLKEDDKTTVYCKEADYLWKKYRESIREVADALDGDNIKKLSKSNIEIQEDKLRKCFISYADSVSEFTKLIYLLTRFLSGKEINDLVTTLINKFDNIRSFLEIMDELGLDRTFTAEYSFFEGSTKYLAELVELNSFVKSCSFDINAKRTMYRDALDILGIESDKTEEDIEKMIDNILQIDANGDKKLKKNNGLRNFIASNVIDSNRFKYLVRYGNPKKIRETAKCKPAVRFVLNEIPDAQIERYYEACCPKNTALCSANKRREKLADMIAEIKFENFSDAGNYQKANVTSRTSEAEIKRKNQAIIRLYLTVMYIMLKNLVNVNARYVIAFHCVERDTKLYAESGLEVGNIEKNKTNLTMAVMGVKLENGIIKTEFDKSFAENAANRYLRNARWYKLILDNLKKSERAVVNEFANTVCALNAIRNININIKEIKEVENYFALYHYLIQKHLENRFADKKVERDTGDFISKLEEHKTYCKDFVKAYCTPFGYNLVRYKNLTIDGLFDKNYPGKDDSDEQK
Assay: crRNA (strand 1, pre-loaded); Mg2+; 40 mM Tris-HCl pH 7.5, 150 mM NaCl, 6 mM MgCl2, 1 mM DTT, 0.1% Tween-20, 0.2 mg/ml BSA; 25 C; 10 min per concentration, then washed
Conditions: tags: His6-TwinStrep-SUMO cleaved; N-terminal SNAP kept (SNAP-Surface 488); label: 3' end held by stalled T7 RNA polymerase

Binder | Kd [nM]
B1 | ~34
B2 | 5.38 ± 0.505
B3 | ~27
B4 | ~20
B5 | 10.8 ± 2.8
B6 | 21.2 ± 4.1
B7 | 38.5 ± 13.5
B8 | 17.6 ± 4.05
B9 | 19.2 ± 2.3
B10 | 9.05 ± 1.55
B11 | 4.46 ± 0.23
B12 | ~39
B13 | 85 ± 23
B14 | ~4.5
B15 | 3.4 ± 0.5
B16 | 26.1 ± 1.7
B17 | 4.9 ± 2.45
B18 | 7.85 ± 1
B19 | 22 ± 5
B20 | ~60

Binder | Kd [nM]
B21 | 6.55 ± 1.8
B22 | ~46.5
B23 | 14 ± 6
B24 | 59 ± 20.5
B25 | 18.4 ± 2
B26 | ~60
B27 | 24.5 ± 6.5
B28 | 57 ± 18
B29 | 20.6 ± 7.75
B30 | 17.9 ± 2.75
B31 | 22 ± 8.5
B32 | 11.7 ± 1.5
B33 | 22.5 ± 4.5
B34 | 39 ± 11.5
B35 | 23 ± 8
B36 | 21.9 ± 4.9
B37 | ~25
B38 | 12.1 ± 1.9
B39 | 29.5 ± 12
